From the MegaScale stability set (Tsuboyama et al. 2023)

B1: EEHEE_rd4_0003 (parent)
chain: KKVTINGVEIKFNNPEEAVKFALELAKRLNLRIEFHGDQIKIE

Variants of: B1
Assay: folding stability dG (cDNA display proteolysis); higher = more stable
Details: PBS, room temperature

Which “folding stability dG” value does the source give for KKVTINGVEIKFNNPEEALKFALELAKRLNLRIEFHGDQIKIE [V19L] here?
Its value is 3.07 kcal/mol.

Which “folding stability dG” value does the source give for KKVTINGVEIKFNNPEEAQKFALELAKRLNLRIEFHGDQIKIE [V19Q] here?
Its value is 2.06 kcal/mol.

Which “folding stability dG” value does the source give for KKVTINGVEIKFNNPEEAAKFALELAKRLNLRIEFHGDQIKIE [V19A] here?
Its value is 2.19 kcal/mol.

Which “folding stability dG” value does the source give for KKVTINGVEIKFNNPEEAPKFALELAKRLNLRIEFHGDQIKIE [V19P] here?
The value was 1.04 kcal/mol.

Which “folding stability dG” value does the source give for KKVTINGVEIKFNNPEEAIKFALELAKRLNLRIEFHGDQIKIE [V19I] here?
The value was 2.9 kcal/mol.

With KKVTINGVEIKFNNPEEADKFALELAKRLNLRIEFHGDQIKIE [V19D] as the variant, how does the “folding stability dG” value read?
Its value is 1.61 kcal/mol.

With KKVTINGVEIKFNNPEEAEKFALELAKRLNLRIEFHGDQIKIE [V19E] as the variant, how does the “folding stability dG” value read?
The value was 2.04 kcal/mol.

With KKVTINGVEIKFNNPEEANKFALELAKRLNLRIEFHGDQIKIE [V19N] as the variant, how does the “folding stability dG” value read?
The value was 1.83 kcal/mol.

With KKVTINGVEIKFNNPEEAKKFALELAKRLNLRIEFHGDQIKIE [V19K] as the variant, how does the “folding stability dG” value read?
Its value is 2.33 kcal/mol.

For KKVTINGVEIKFNNPEEAGKFALELAKRLNLRIEFHGDQIKIE [V19G], which “folding stability dG” value is on record?
The value was 1.54 kcal/mol.

With KKVTINGVEIKFNNPEEAHKFALELAKRLNLRIEFHGDQIKIE [V19H] as the variant, how does the “folding stability dG” value read?
The value was 2.21 kcal/mol.

For KKVTINGVEIKFNNPEEAMKFALELAKRLNLRIEFHGDQIKIE [V19M], which “folding stability dG” value is on record?
The value was 2.94 kcal/mol.

For KKVTINGVEIKFTNPEEAVKFALELAKRLNLRIEFHGDQIKIE [N13T], which “folding stability dG” value is on record?
Its value is 2.61 kcal/mol.

Which “folding stability dG” value does the source give for KKVTINGVEIKFPNPEEAVKFALELAKRLNLRIEFHGDQIKIE [N13P] here?
Its value is 2.53 kcal/mol.

Which “folding stability dG” value does the source give for KKVTINGVEIKFRNPEEAVKFALELAKRLNLRIEFHGDQIKIE [N13R] here?
The value was 2.84 kcal/mol.

With KKVTINGVEIKFQNPEEAVKFALELAKRLNLRIEFHGDQIKIE [N13Q] as the variant, how does the “folding stability dG” value read?
The value was 2.54 kcal/mol.

For KKVTINGVEIKFSNPEEAVKFALELAKRLNLRIEFHGDQIKIE [N13S], which “folding stability dG” value is on record?
The value was 2.69 kcal/mol.

For KKVTINGVEIKFMNPEEAVKFALELAKRLNLRIEFHGDQIKIE [N13M], which “folding stability dG” value is on record?
The value was 2.66 kcal/mol.

With KKVTINGVEIKFWNPEEAVKFALELAKRLNLRIEFHGDQIKIE [N13W] as the variant, how does the “folding stability dG” value read?
Its value is 2.6 kcal/mol.

With KKVTINGVEIKFVNPEEAVKFALELAKRLNLRIEFHGDQIKIE [N13V] as the variant, how does the “folding stability dG” value read?
Its value is 2.46 kcal/mol.

With KKVTINGVEIKFYNPEEAVKFALELAKRLNLRIEFHGDQIKIE [N13Y] as the variant, how does the “folding stability dG” value read?
The value was 2.39 kcal/mol.

For KKVTINGVEIKFNNPENAVKFALELAKRLNLRIEFHGDQIKIE [E17N], which “folding stability dG” value is on record?
The value was 2.24 kcal/mol.

For KKVTINGVEIKFNNPESAVKFALELAKRLNLRIEFHGDQIKIE [E17S], which “folding stability dG” value is on record?
Its value is 2.39 kcal/mol.

With KKVTINGVEIKFNNPEYAVKFALELAKRLNLRIEFHGDQIKIE [E17Y] as the variant, how does the “folding stability dG” value read?
Its value is 2.56 kcal/mol.

Which “folding stability dG” value does the source give for KKVTINGVEIKFNNPECAVKFALELAKRLNLRIEFHGDQIKIE [E17C] here?
The value was 4.22 kcal/mol.

Which “folding stability dG” value does the source give for KKVTINGVEIKFNNPETAVKFALELAKRLNLRIEFHGDQIKIE [E17T] here?
The value was 2.26 kcal/mol.

With KKVTINGVEIKFNNPEFAVKFALELAKRLNLRIEFHGDQIKIE [E17F] as the variant, how does the “folding stability dG” value read?
Its value is 2.36 kcal/mol.

For KKVTINGVEIKFNNPEHAVKFALELAKRLNLRIEFHGDQIKIE [E17H], which “folding stability dG” value is on record?
The value was 2.23 kcal/mol.

With KKVTINGVEIKFNNPERAVKFALELAKRLNLRIEFHGDQIKIE [E17R] as the variant, how does the “folding stability dG” value read?
The value was 2.16 kcal/mol.

For KKVTINGVEIKFNNPELAVKFALELAKRLNLRIEFHGDQIKIE [E17L], which “folding stability dG” value is on record?
Its value is 2.56 kcal/mol.

With KKVTINGVEIKFNNPEDAVKFALELAKRLNLRIEFHGDQIKIE [E17D] as the variant, how does the “folding stability dG” value read?
Its value is 2.68 kcal/mol.

For KKVTINGVEIKFNNPEIAVKFALELAKRLNLRIEFHGDQIKIE [E17I], which “folding stability dG” value is on record?
Its value is 2.36 kcal/mol.

Which “folding stability dG” value does the source give for KKVTINGVEIKFNNPEQAVKFALELAKRLNLRIEFHGDQIKIE [E17Q] here?
Its value is 2.48 kcal/mol.

With KKVTINGVEIKFNNPEPAVKFALELAKRLNLRIEFHGDQIKIE [E17P] as the variant, how does the “folding stability dG” value read?
The value was 1.9 kcal/mol.

For KKVTINGVEIKFNNPEKAVKFALELAKRLNLRIEFHGDQIKIE [E17K], which “folding stability dG” value is on record?
Its value is 2.3 kcal/mol.

For KKVTINGVEIKFNNPEVAVKFALELAKRLNLRIEFHGDQIKIE [E17V], which “folding stability dG” value is on record?
Its value is 2.25 kcal/mol.

With KKVTINGVEIKFNNPEMAVKFALELAKRLNLRIEFHGDQIKIE [E17M] as the variant, how does the “folding stability dG” value read?
Its value is 2.49 kcal/mol.

Which “folding stability dG” value does the source give for KKVTINGVEIKFNNPEGAVKFALELAKRLNLRIEFHGDQIKIE [E17G] here?
The value was 2.2 kcal/mol.

For KKVTINGVEIKFNNPEAAVKFALELAKRLNLRIEFHGDQIKIE [E17A], which “folding stability dG” value is on record?
Its value is 2.68 kcal/mol.

Which “folding stability dG” value does the source give for KKVTINGVEIKFNNPEWAVKFALELAKRLNLRIEFHGDQIKIE [E17W] here?
The value was 2.84 kcal/mol.

For KKVTINGVEIKFNNPEEGVKFALELAKRLNLRIEFHGDQIKIE [A18G], which “folding stability dG” value is on record?
The value was 2.01 kcal/mol.

For KKVTINGVEIKFNNPEEKVKFALELAKRLNLRIEFHGDQIKIE [A18K], which “folding stability dG” value is on record?
Its value is 1.52 kcal/mol.

For KKVTINGVEIKFNNPEEHVKFALELAKRLNLRIEFHGDQIKIE [A18H], which “folding stability dG” value is on record?
Its value is 1.7 kcal/mol.

Which “folding stability dG” value does the source give for KKVTINGVEIKFNNPEEDVKFALELAKRLNLRIEFHGDQIKIE [A18D] here?
The value was 1.41 kcal/mol.

Which “folding stability dG” value does the source give for KKVTINGVEIKFNNPEERVKFALELAKRLNLRIEFHGDQIKIE [A18R] here?
The value was 1.72 kcal/mol.

With KKVTINGVEIKFNNPEENVKFALELAKRLNLRIEFHGDQIKIE [A18N] as the variant, how does the “folding stability dG” value read?
The value was 1.75 kcal/mol.

With KKVTINGVEIKFNNPEEYVKFALELAKRLNLRIEFHGDQIKIE [A18Y] as the variant, how does the “folding stability dG” value read?
Its value is 2.36 kcal/mol.

With KKVTINGVEIKFNNPEEVVKFALELAKRLNLRIEFHGDQIKIE [A18V] as the variant, how does the “folding stability dG” value read?
Its value is 2.48 kcal/mol.

Which “folding stability dG” value does the source give for KKVTINGVEIKFNNPEEWVKFALELAKRLNLRIEFHGDQIKIE [A18W] here?
Its value is 2.78 kcal/mol.

For KKVTINGVEIKFNNPEECVKFALELAKRLNLRIEFHGDQIKIE [A18C], which “folding stability dG” value is on record?
Its value is 3.5 kcal/mol.

Which “folding stability dG” value does the source give for KKVTINGVEIKFNNPEETVKFALELAKRLNLRIEFHGDQIKIE [A18T] here?
Its value is 1.88 kcal/mol.

For KKVTINGVEIKFNNPEELVKFALELAKRLNLRIEFHGDQIKIE [A18L], which “folding stability dG” value is on record?
The value was 2.59 kcal/mol.

Which “folding stability dG” value does the source give for KKVTINGVEIKFNNPEEPVKFALELAKRLNLRIEFHGDQIKIE [A18P] here?
The value was 1.64 kcal/mol.

Which “folding stability dG” value does the source give for KKVTINGVEIKFNNPEESVKFALELAKRLNLRIEFHGDQIKIE [A18S] here?
Its value is 1.93 kcal/mol.

For KKVTINGVEIKFNNPEEIVKFALELAKRLNLRIEFHGDQIKIE [A18I], which “folding stability dG” value is on record?
Its value is 2.45 kcal/mol.

For KKVTINGVEIKFNNPEEFVKFALELAKRLNLRIEFHGDQIKIE [A18F], which “folding stability dG” value is on record?
The value was 2.79 kcal/mol.

With KKVTINGVEIKFNNPEEEVKFALELAKRLNLRIEFHGDQIKIE [A18E] as the variant, how does the “folding stability dG” value read?
The value was 1.47 kcal/mol.

Which “folding stability dG” value does the source give for KKVTINGVEIKFNNPEEMVKFALELAKRLNLRIEFHGDQIKIE [A18M] here?
Its value is 2.47 kcal/mol.

Which “folding stability dG” value does the source give for KKVTINGVEIKFNNPEEQVKFALELAKRLNLRIEFHGDQIKIE [A18Q] here?
The value was 1.61 kcal/mol.
